Results taken from patent US20210162067A1, “Composition and Methods of Controllable Co-Coupling Polypeptide Nanoparticle Delivery System for Nucleic Acid Therapeutics” (SIRNAOMICS, INC., priority 2018, published 2021).
No end group written: not given here.

Format: physicochemical
Protocol: The structure of the HKC2 was characterized by HPLC and mass spectroscopy, and a major peak at retention time at 8.053 min with a purity 90.0% was observed by RPHPLC. In the ESI-MS spectrum (FIG. 2B), a molecular ion peak was observed as double charged ion [M+2H]^2+. Similarly, triple charged, 4+ and 5+ species were also observed. It provided a molecular weight of 2683 Da, which is in good agreement with the theoretical value. […] This is a plus for its formulation with the siRNA in aqueous medium.

For “K(HHHK)4CSSC (KHHHKHHHKHHHKHHHKCSSC; also: branched peptide, cross-linked through intermolecular disulfide bonds between cysteines into polymer (HKC2))”, the solubility in water was “readily soluble in water”.
